2 molecules from US20050136004A1 (ZymoGenetics, published 2005) can be followed below.

Assay [1] deals with T1, IL-20RA/IL-20RB heterodimeric receptor (human), on cells (human, UniProt Q9UHF4 30-553; Q6UXL0 30-311).
T1 sequence 1: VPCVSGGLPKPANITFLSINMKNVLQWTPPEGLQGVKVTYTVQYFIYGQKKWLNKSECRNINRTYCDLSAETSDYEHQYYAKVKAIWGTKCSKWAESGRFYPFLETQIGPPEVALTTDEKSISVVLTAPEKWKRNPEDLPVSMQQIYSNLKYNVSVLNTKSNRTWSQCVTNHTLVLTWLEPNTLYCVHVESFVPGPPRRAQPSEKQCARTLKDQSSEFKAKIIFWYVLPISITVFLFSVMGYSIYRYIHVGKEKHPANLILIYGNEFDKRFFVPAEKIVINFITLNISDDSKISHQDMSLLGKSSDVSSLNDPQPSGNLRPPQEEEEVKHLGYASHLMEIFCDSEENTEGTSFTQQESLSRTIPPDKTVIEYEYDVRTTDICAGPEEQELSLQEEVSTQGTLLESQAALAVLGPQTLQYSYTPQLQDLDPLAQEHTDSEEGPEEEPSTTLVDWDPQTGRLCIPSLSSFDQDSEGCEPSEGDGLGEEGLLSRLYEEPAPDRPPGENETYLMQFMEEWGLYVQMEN
T1 sequence 2: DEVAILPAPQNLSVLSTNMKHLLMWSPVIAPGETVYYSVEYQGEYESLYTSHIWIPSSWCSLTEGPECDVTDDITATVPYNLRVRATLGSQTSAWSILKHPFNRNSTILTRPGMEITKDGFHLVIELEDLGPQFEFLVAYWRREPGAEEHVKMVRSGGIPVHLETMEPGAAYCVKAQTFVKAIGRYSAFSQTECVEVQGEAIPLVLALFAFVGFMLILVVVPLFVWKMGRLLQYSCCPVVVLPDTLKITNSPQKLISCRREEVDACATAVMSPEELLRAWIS
Put plainly: cell-based or functional assay.

Assay [2] deals with T2, IL-20RB (human), on cells (human, UniProt Q6UXL0 30-311).
T2 construct: This id covers the subunit expressed alone on BHK or BaF3/KZ134 transfectants; It is also used for endogenous IL-20RB on THP-1 cells; also called DIRS1; pDIRS1
T2 sequence: T1 sequence 2
Description: radiolabeled ligand binding on stably transfected BHK cells. On the procedure:
(§1) The specificity and affinity of IL-20 for its receptor was determined using BHK cells stably transfected with IL-20RA, IL-20RB or both receptor subunits. […] Binding of ¹²⁵I-labeled IL-20 was eliminated in the presence of 100-fold excess of unlabeled IL-20 but not with 100-fold excess of the unrelated cytokine, IL-21.

Assay [3] deals with T3, IL-20RA (human), on cells (human, UniProt Q9UHF4 30-553).
T3 construct: This id covers the subunit expressed alone on BHK or BaF3/KZ134 transfectants; It is also used for endogenous IL-20RA on human monocytic cells and in human lung tissue; also called ZcytoR7; IL-20RA only
T3 sequence: T1 sequence 1
Described as above. The protocol: as §1

In assay [4] the target is T1, IL-20RA/IL-20RB heterodimeric receptor …. Description: 125I-IL-20 binding on BHK cells expressing IL-20RA and IL-20RB. On the procedure: as §1

B1: human IL-20-Bv (purified mature recombinant human IL-20 produced in Baculovirus) (ligand)
chain: LKTLNLGSCVIATNLQEIRNGFSDIRGSVQAKDGNIDIRILRRTESLQDTKPANRCCLLRHLLRLYLDRVFKNYQTPDHYTLRKISSLANSFLTIKKDLRLCHAHMTCHCGEEAMKKYSQILSHFEKLEPQAAVVKALGELDILLQWMEETE
On to B1, for which, in assay [1], the “Alamar Blue proliferation of BaF3/KZ134/IL-20RA/IL-20RB cells at 1 pM IL-20” value was 2 fold over background and the “Alamar Blue proliferation of BaF3/KZ134/IL-20RA/IL-20RB cells at 1 nM IL-20” value is around 30 fold over background.

B2: IL-20 (human IL-20, mature polypeptide; preparation or host not specified) (ligand)
chain: B1 chain
notes: also called Zcyto10; IL-20 protein
Consider B2, for which the binding result in assay [2] and in assay [3] was “no binding” throughout. The same molecule gave a dissociation constant (Kd) in assay [4] of around 1.5 nM.
